Laboratory results as given in patent publication US20090155249A1 (AC IMMUNE S A, published 2009).

Molecular target: Amyloid Beta (antigen of the Amyloid Beta ELISA) (UniProt P05067 672-713, limits assumed)
Experiment: Amyloid Beta ELISA, purified antibodies, A405

Chain of Amyloid Beta (antigen of the Amyloid Beta ELISA) (P05067 672-713 limits assumed): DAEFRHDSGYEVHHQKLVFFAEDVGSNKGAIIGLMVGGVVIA

- EC50 (read off the curve): ~3 ng/well
B1: chimeric antibody C2 ChVH AF/ChVK (antibody, V domains shown)
VH: EVQLVESGGGLVQPGGSLKLSCAASGFTFSSYGMSWVRQTPDKRLELVASINSNGGSTYYPDSVKGRFTISRDNAKNTLYLQMSSLKSEDTAMYYCASGDYWGQGSTLTVSS
VL: DVVMTQTPLSLPVSLGDQASISCRSSQSLVYSNGDTYLHWYLQKPGQSPKLLIYKVSNRFSGVPDRFSGSGSGTDFTLKISRVEAEDLGVYFCSQSTHVPWTFGGGTKLEIKR
notes: both forms are written under this id; also called C2 VH AF/C2 VK chimeric antibody; chimeric AF
